The data set concerns the molecule itself. The data set can be described thus: gel and Western blot of high molecular weight species; purified recombinant GST-(GA)50 beside GST alone (Online Resource 1a); samples heated in Laemmli's buffer.

B1: recombinant GST-(GA)50 protein (other, human)
chain: GAGAGAGAGAGAGAGAGAGAGAGAGAGAGAGAGAGAGAGAGAGAGAGAGAGAGAGAGAGAGAGAGAGAGAGAGAGAGAGAGAGAGAGAGAGAGAGAGAGA
notes: poly(GA) c9RAN dipeptide repeat, 50 repeats; (GA)50 cDNA in pGEX-6P-1 (BamHI/XhoI); RAN-translated from the G4C2 repeat of C9ORF72, not part of the C9ORF72 protein; also called poly(GA); source: E. coli Rosetta(DE3)pLysS, purified (Glutathione Sepharose 4B, eluted with glutathione, dialysed); not shown: GST, N-terminal, kept
For B1, the binding result is given as “binds”.
